Assay results reported in publication PMC10786891, “Massively parallel profiling of RNA-targeting CRISPR-Cas13d”.
Where a chain is given by its changes, count along the chain named. Names may count otherwise.

B1: target 1 insA 3' of 19,insU 3' of 15 (mixed)
RNA 1: CACCCGUGCAAAAAUGCAGGGGUCUAAAACUGAGCGGAUAACCUCUCUAUGG
RNA 2: GGGAAUGGAUCCACAUCUACGAAUUCGUACCAUAAGAGUAGGUUAUCCGCUCACCGAGAUCGGAAGAGCACACGU
B2: target 1 U10A,A16C (mixed)
RNA 1: B1 RNA 1
RNA 2: GGGAAUGGAUCCACAUCUACGAAUUCGUACCAUAGCGAGGUAAUCCGCUCACCGAGAUCGGAAGAGCACACGU
B3: target 1 U10G,A14G (mixed)
RNA 1: B1 RNA 1
RNA 2: B2 RNA 2 with C36A, A38G, A42G
B4: target 1 insG 3' of 7,insG 3' of 1 (mixed)
RNA 1: B1 RNA 1
RNA 2: GGGAAUGGAUCCACAUCUACGAAUUCGUACCAUAGAGAGGUUAUCGCGCUCAGCCGAGAUCGGAAGAGCACACGU
B5: target 1 A16G,C22A (mixed)
RNA 1: B1 RNA 1
RNA 2: B2 RNA 2 with C30A, C36G, A42U
B6: target 1 insU 3' of 21,insG 3' of 9 (mixed)
RNA 1: B1 RNA 1
RNA 2: B1 RNA 2 with A32U, U33A, A34U, U39A, A40G, G42U, U44A, A45G
B7: target 1 U3G,A9U (mixed)
RNA 1: B1 RNA 1
RNA 2: B2 RNA 2 with C36A, A42U, A43U, U49G
B8: target 1 insA 3' of 15,insC 3' of 13 (mixed)
RNA 1: B1 RNA 1
RNA 2: B1 RNA 2 with A35G, G36A, A37G, G38A, U39A, A40G, G41C
B9: target 1 del11 (mixed)
RNA 1: B1 RNA 1
RNA 2: GGGAAUGGAUCCACAUCUACGAAUUCGUACCAUAGAGAGGUAUCCGCUCACCGAGAUCGGAAGAGCACACGU
B10: target 1 insA 3' of 21,insU 3' of 18 (mixed)
RNA 1: B1 RNA 1
RNA 2: B1 RNA 2 with U33A, A34U, G36U, A37G, G38A, U39G
B11: target 1 insU 3' of 20,insG 3' of 11 (mixed)
RNA 1: B1 RNA 1
RNA 2: B1 RNA 2 with A34U, U39A, A40G, G42U, U43G
B12: target 1 insG 3' of 7,insA 3' of 2 (mixed)
RNA 1: B1 RNA 1
RNA 2: B4 RNA 2 with G53A
B13: target 1 C4G,U11C (mixed)
RNA 1: B1 RNA 1
RNA 2: B2 RNA 2 with C36A, U41C, A42U, C48G
B14: target 1 insG 3' of 7,insC 3' of 1 (mixed)
RNA 1: B1 RNA 1
RNA 2: B4 RNA 2 with G53C
B15: target 1 del3,del7 (mixed)
RNA 1: B1 RNA 1
RNA 2: GGGAAUGGAUCCACAUCUACGAAUUCGUACCAUAGAGAGGUUAUCGCCACCGAGAUCGGAAGAGCACACGU
B16: target 1 insC 3' of 12 (mixed)
RNA 1: B1 RNA 1
RNA 2: GGGAAUGGAUCCACAUCUACGAAUUCGUACCAUAGAGAGGCUUAUCCGCUCACCGAGAUCGGAAGAGCACACGU

Target: T1, EsCas13d, nuclease-dead (Eubacterium siraeum, UniProt B0MS50, R295A;H300A;R849A;H854A)
T1 sequence: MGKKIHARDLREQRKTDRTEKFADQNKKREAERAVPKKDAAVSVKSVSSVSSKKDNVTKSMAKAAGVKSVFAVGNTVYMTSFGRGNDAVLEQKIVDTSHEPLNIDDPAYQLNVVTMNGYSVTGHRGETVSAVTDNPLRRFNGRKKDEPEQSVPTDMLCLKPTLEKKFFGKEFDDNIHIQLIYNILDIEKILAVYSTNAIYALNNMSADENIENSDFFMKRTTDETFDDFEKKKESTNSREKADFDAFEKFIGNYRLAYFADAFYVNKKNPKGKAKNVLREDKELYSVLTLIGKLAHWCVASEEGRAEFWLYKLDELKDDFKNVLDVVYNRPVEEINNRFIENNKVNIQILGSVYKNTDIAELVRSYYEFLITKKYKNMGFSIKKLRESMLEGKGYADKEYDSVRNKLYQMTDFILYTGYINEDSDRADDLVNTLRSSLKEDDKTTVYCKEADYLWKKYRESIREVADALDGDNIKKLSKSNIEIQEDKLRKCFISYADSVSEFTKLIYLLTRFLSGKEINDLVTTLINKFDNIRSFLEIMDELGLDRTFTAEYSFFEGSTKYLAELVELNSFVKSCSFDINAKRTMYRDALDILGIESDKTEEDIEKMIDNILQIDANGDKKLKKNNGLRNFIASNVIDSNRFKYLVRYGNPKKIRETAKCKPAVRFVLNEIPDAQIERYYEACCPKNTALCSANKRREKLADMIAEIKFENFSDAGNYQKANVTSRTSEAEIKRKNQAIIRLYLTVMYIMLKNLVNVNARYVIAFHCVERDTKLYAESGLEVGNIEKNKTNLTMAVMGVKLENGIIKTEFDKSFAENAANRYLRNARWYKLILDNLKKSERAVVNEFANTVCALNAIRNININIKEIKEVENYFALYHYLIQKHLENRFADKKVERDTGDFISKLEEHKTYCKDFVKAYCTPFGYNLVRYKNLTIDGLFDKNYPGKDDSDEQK
Assay: crRNA (strand 1, pre-loaded); Mg2+; 40 mM Tris-HCl pH 7.5, 150 mM NaCl, 6 mM MgCl2, 1 mM DTT, 0.1% Tween-20, 0.2 mg/ml BSA; 25 C; 10 min per concentration, then washed
Details: tags: His6-TwinStrep-SUMO cleaved; N-terminal SNAP kept (SNAP-Surface 488); label: 3' end held by stalled T7 RNA polymerase

Binder | Kd [µM]
B1 | 0.0232 ± 0.0026
B2 | 0.068 ± 0.01
B3 | 0.0233 ± 0.0013
B4 | 0.00665 ± 0.00035
B5 | 0.051 ± 0.01
B6 | 0.077 ± 0.019
B7 | 0.0075 ± 0.0007
B8 | 0.0164 ± 0.0023
B9 | 0.0159 ± 0.0009
B10 | 0.046 ± 0.007
B11 | 0.051 ± 0.012
B12 | 0.00636 ± 0.00031
B13 | 0.009 ± 0.0008
B14 | 0.0076 ± 0.0005
B15 | 0.00494 ± 0.00021
B16 | 0.0083 ± 0.0005
